± gives the standard deviation of the averaged measurements.
Test system: ATP
Assay: switch fluorescence ratio, 500 uM ATP over buffer (Cy3 cluster intensity, sum of 5 cycles each) (fold (ratio)); higher = stronger signal-on switching upon ATP binding; sequences stand for … in TCGTCGGCAGCGTCAGATGTGTATAAGAGACAGTTTTTTTTTTTTTTTTTTTTTTTTT…TC
Conditions: aptamer strand: ATP DNA aptamer (quencher-CACCTGGGGGAGTATTGCGGAGGAAGG + anchor), 100 nM annealed; ATP concentration: 500 uM
How it was run: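 Clusters carrying Cy3-labelled switching strands on a modified Illumina MiSeq flow-cell were annealed to 100 nM quencher-labelled ATP aptamer and imaged in selection buffer. They were imaged again after 15 min with 500 uM ATP at 22 °C, over five buffer/ATP cycles with NaOH stripping and re-annealing in between. For each cluster, the fluorescence ratio is the summed Cy3 intensity of the target cycles divided by that of the buffer cycles, averaged per switch-domain sequence. Clusters outside 100-1000 RFU were left out.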
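Also: ATP exposure 15 min at 22 °C before imaging.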

Row | Sequence | switch fluorescence ratio
1 | ATCGGGGGTC | 0.946 ± 0.032
2 | CTGACGTTTT | 1.18 ± 0.2
3 | GAAAATGTTG | 0.991 ± 0.033
4 | CCGAGGGTTA | 1.34 ± 0.12
5 | CAATAGTCAA | 1.05 ± 0.013
6 | AGAAGTTGAG | 0.984 ± 0.01
7 | AGGGTGTGCC | 1.01 ± 0.018
8 | AAAAAGGGAA | 0.986 ± 0.02
9 | GGGATGGGAA | 1.02 ± 0.022
10 | CATTTATAAG | 0.977 ± 0.013
11 | GGGGTAGGCA | 0.9742 ± 0.0033
12 | GCTAACCGGG | 1 ± 0.0097
13 | TCAGAATTCA | 1.01 ± 0.012
14 | ATTAGTCTAT | 0.988 ± 0.036
15 | CGCCTCAGGT | 1.46 ± 0.14
16 | CGCTTGTGTT | 0.9821 ± 0.0015
17 | GTTTTTCGT | 1 ± 0.062
18 | GGTACGGGGT | 1 ± 0.028
19 | CTTGAAAGGG | 0.997 ± 0.02
20 | TTTTCTTAGT | 0.974 ± 0.021
21 | TCATGCTGAG | 0.98 ± 0.0077
22 | TATCGCTGGT | 1.04 ± 0.023
23 | AACTGAGATT | 1.02 ± 0.024
24 | TGTAAGTTTC | 1.04 ± 0.073
25 | TGCCTTAAGT | 1.01 ± 0.063

Row | Sequence | switch fluorescence ratio
26 | GAATGGGGAT | 1.01 ± 0.076
27 | TTTTGCAATT | 1.98 ± 1.3
28 | CGGGGGCGGT | 0.998 ± 0.03
29 | ATAAGTTGAT | 1.01 ± 0.03
30 | TTGATGAGTG | 1.01 ± 0.033
31 | CGGTACGACG | 0.94 ± 0.019
32 | CTATTAATAC | 1.63 ± 0.096
33 | ATGGTAGTGG | 0.995 ± 0.026
34 | TCGTAAGTAA | 1.04 ± 0.0094
35 | CGAAGGGCTA | 1.15 ± 0.19
36 | ACGGGGTATT | 0.996 ± 0.028
37 | TTGAAAAAGC | 0.975 ± 0.015
38 | GCCATTAGCA | 1.022 ± 0.005
39 | GACTGTGGCA | 1.013 ± 0.0021
40 | AAGAACTATG | 1.02 ± 0.034
41 | CGCGTTCGCT | 1.025 ± 0.0083
42 | CGGAACGCTC | 1.71 ± 0.025
43 | GTGGAGTAAG | 1.01 ± 0.023
44 | GGGGATAGAT | 0.982 ± 0.027
45 | AACTGTATAT | 1.15 ± 0.019
46 | GCCTGAAAGG | 0.993 ± 0.022
47 | TACTAGGCTG | 0.992 ± 0.081
48 | GTTTGGGTAG | 1.02 ± 0.034
49 | TTTTTCGACC | 1.01 ± 0.035
50 | TTTATTAGCA | 0.968 ± 0.05

Row | Sequence | switch fluorescence ratio
51 | GTGTCGGGGA | 1.01 ± 0.071
52 | CGTGAAGGGT | 0.992 ± 0.013
53 | AGGGGAGGTG | 1.09 ± 0.05
54 | TAATATTTTA | 0.987 ± 0.014
55 | TTCCCGGGGG | 1.06 ± 0.067
56 | AAAATGGATT | 0.995 ± 0.055
57 | TGCAGAAGGT | 0.992 ± 0.03
58 | TATTGACGGG | 0.9956 ± 0.0023
59 | AGGGTGCTCC | 1.23 ± 0.33
60 | AGGATGAAAG | 0.9896 ± 0.0034
61 | ATTCAAGTCA | 1.03 ± 0.025
62 | TTTGGTCTTT | 1 ± 0.02
63 | TAGGCATCGT | 0.969 ± 0.019
64 | TTCTCACGTC | 1.01 ± 0.082
65 | AGGACTGAAG | 0.989 ± 0.07
66 | TGGGAACGTC | 1.0205 ± 2.8e-05
67 | TTTTCGAAAA | 1.03 ± 0.075
68 | TATGGGTTTT | 1.02 ± 0.037
69 | ATTTTCGGGG | 1.01 ± 0.039
70 | ATTATTTGAC | 1.08 ± 0.067
71 | GTGTCTAAAT | 0.989 ± 0.011
72 | CAGTGGGGTA | 0.966 ± 0.012
73 | TCAGTGACGT | 0.9827 ± 0.0096
74 | TGGGGGGG | 1 ± 0.024
75 | AACTTTTCAT | 1.02 ± 0.02

Row | Sequence | switch fluorescence ratio
76 | GGGGAAGGTG | 1.79 ± 1
77 | AAGTAGTCTT | 0.995 ± 0.014
78 | CAGTTTTGGG | 0.9713 ± 0.0016
79 | TTTCGACGTT | 0.99 ± 0.011
80 | TACTATATGG | 1.03 ± 0.011
81 | CGAGTAGAAT | 1.06 ± 0.065
82 | TTGGAAAAGT | 0.988 ± 0.036
83 | CCTGAGGTTC | 1.03 ± 0.061
84 | CGCATGTTTC | 1.2 ± 0.15
85 | TTGGGCGGCG | 0.982 ± 0.074
86 | TAAAAGGGTC | 0.942 ± 0.085
87 | ATGCGAATAT | 0.989 ± 0.015
88 | GCTGGCAATT | 1.027 ± 0.0069
89 | CCAGTAGTCT | 1.05 ± 0.019
90 | ATTGATCTCG | 1.04 ± 0.083
91 | ATCAGTGCGA | 1.036 ± 0.0081
92 | GATTTTCGAG | 0.994 ± 0.031
93 | CGTGTCTTGA | 1.027 ± 0.0037
94 | GATTTGAAAC | 1 ± 0.031
95 | TTTCGCCAGA | 1.03 ± 0.0044
96 | TAATGGGGCC | 1.057 ± 0.005
97 | TTAGGGGGTT | 1.04 ± 0.062
98 | AAAATTAAGC | 1.01 ± 0.051
99 | ATGGATGACA | 0.951 ± 0.052
100 | TGTTGGACTA | 0.9992 ± 0.0065

From the supplement of paper PMC10126150
